Results reported in article PMC4894398, “Efficient Demyristoylase Activity of SIRT2 Revealed by Kinetic and Structural Studies” (Scientific Reports, 2015).
No end group written: not given here.

T1: SIRT2 (residues 38–356 of the full-length human SIRT2) (human, UniProt Q8IXJ6 38-356)
T1 construct: NAD-dependent protein deacylase sirtuin-2 (SIRT2), human, residues 38-356 of the full-length protein; Cloned into pET28b(+) with an N-terminal hexahistidine and sumo tag; The tag was cut off by Ulp1 and removed on a second Ni-NTA column; source: E. coli BL21 (DE3), purified (Ni-NTA, Ulp1 cleavage, second Ni-NTA, Superdex G200); not shown: His6, N-terminal, cleaved; SUMO, N-terminal, cleaved
T1 sequence (looked up): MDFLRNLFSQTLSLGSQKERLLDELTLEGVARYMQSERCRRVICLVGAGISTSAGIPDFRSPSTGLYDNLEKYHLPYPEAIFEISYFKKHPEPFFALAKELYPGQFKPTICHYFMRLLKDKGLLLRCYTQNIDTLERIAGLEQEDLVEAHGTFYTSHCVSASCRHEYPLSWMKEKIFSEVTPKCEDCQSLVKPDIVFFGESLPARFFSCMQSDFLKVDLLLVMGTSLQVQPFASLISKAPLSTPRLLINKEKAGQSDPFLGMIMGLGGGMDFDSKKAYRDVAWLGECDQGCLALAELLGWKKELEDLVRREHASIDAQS


Experiments:
[1] = target: SIRT2 (residues 38–356 of the full-length human SIRT2) (human) (UniProt Q8IXJ6)
[2] = target: T1, SIRT2 (residues 38–356 of the …); assay: crystal structure; 10 mg/mL SIRT2 in 20 mM Tris, 50 mM NaCl, pH 7.5 preincubated on ice with 10 mM BHJH-TM1 for about 1 h; hanging drop, 25% PEG 3350, 0.1 M Hepes pH 7.5; 2.1 Å, two subunits in the asymmetric unit; details: both partners purified

Row | Molecule | Km of demyristoylation of the H3K9 myristoyl peptide by SIRT2 (HPLC kinetics, 0.2 μM SIRT2, 1 mM NAD, 37°C, peptide 0.25-32 μM) [1] | binding result [2]
1 | H3K9 myristoyl peptide (histone H3 Lys9 peptide bearing a myristoyl group) | 0.24 µM | –
2 | PKK(thiomyristoyl)TG (also called Myr Peptide (PKK(Tmy)TG)) [BHJH-TM1 thiomyristoyl peptide (PKK(TMy)TG)] | – | binds
